Reference: patent US20070196376A1 (AstraZeneca / MedImmune, published 2007)
Values belong to the binder of their own block, whether it stands above or below them.

How the values were obtained:
[1] = molecular target: T1, human insulin-like growth factor-I (IGF-I) (human, UniProt P05019 49-118); test: Biacore high-resolution, mAb captured, IGF-I injected over a range of concentrations
T1 construct: also called IGF1; IGF-1

[2] = molecular target: T2, human insulin-like growth factor-II (IGF-II) (human, UniProt P01344 25-91); test: cell-based or functional assay
[3] = molecular target: T2, human insulin-like growth factor-II …; test: Biacore low-resolution analysis, IGF-II
Method: (§1) The label-free surface plasmon resonance (SPR), or Biacore, was utilized to measure the antibody affinity to the antigen. For this purpose, a high-density goat anti-human antibody surface over a CM5 Biacore chip was prepared using routine amine coupling. All the mAbs were diluted to approximately 20 μg/ml in HBS-P running buffer containing 100 gg/ml BSA. Each mAb was captured on a separate surface using a 30-second contact time at 10 μL/min., and a 5-minute wash for stabilization of the mAb baseline.
(§2) The samples were prepared in the HBS-P running buffer described above. […] Drift-corrected binding data for the 34 mAbs was prepared by subtracting the signal from a control flow cell and subtracting the baseline drift of a buffer injected just prior to each antigen injection. […] A mass transport coefficient was used in fitting the data.

[4] = molecular target: T1, human insulin-like growth factor-I …; test: cell-based or functional assay
[5] = molecular target: T2, human insulin-like growth factor-II …; test: cell-based or functional assay; remark: listed apart in the source
[6] = molecular target: T2, human insulin-like growth factor-II …; test: Biacore low-resolution screen, mAb captured, IGF-II injected
Method: as §1, §2

[7] = molecular target: T2, human insulin-like growth factor-II …; test: Biacore low-resolution screen, mAb captured, IGF-II injected; off-rate held constant in the fit; off-rate marked with asterisk; low-resolution screen, 5-minute dissociation
Method: as §1, §2

[8] = molecular target: T1, human insulin-like growth factor-I …; test: Biacore low-resolution analysis, IGF-I; low-resolution screen, not high-resolution (294.0 pM)
Method: as §1, §2

[9] = molecular target: T1, human insulin-like growth factor-I …; test: cell-based or functional assay; remark: listed apart in the source
[10] = molecular target: T2, human insulin-like growth factor-II …; test: cell-based or functional assay; remark: listed apart in the source
[11] = molecular target: mouse IGF-I (mouse, UniProt P05017 49-118); test: cell-based or functional assay
[12] = molecular target: mouse IGF-II (mouse, UniProt P09535 25-91); test: cell-based or functional assay
[13] = molecular target: T1, human insulin-like growth factor-I …; test: cell-based or functional assay; remark: listed apart in the source
[14] = molecular target: T2, human insulin-like growth factor-II …; test: cell-based or functional assay; remark: listed apart in the source
[15] = molecular target: T1, human insulin-like growth factor-I …; test: Biacore low-resolution screen, mAb captured, IGF-I injected
Method: as §1, §2

[16] = molecular target: T2, human insulin-like growth factor-II …; test: Biacore high-resolution, mAb captured, IGF-II injected over a range of concentrations
[17] = molecular target: T2, human insulin-like growth factor-II …; test: Biacore high-resolution, mAb captured, IGF-II injected over a range of concentrations; second value, row without label
[18] = molecular target: T1, human insulin-like growth factor-I …; test: Biacore high-resolution, mAb captured, IGF-I injected over a range of concentrations; second value, row without label
[19] = molecular target: T1, human insulin-like growth factor-I …; test: Biacore low-resolution analysis, IGF-I
Method: as §1, §2

Kd [1]: 0.294 nM
EC50 (nM), n = 1, IGF-II Proliferation, BxPC3 cells [2]: 0.8 nM
EC50 (nM), n = 2, IGF-II Proliferation, BxPC3 cells [2]: 0.9 nM
Max % Inhibition (133.3 nM), n = 2, IGF-II Proliferation, BxPC3 cells [2]: 118%
Max % Inhibition (333.3 nM), n = 1, IGF-II Proliferation, BxPC3 cells [2]: 120%
Kd [3]: 0.0029 nM
% MAX Activation, mean (n = 2), IGF-I pTYR of hIGF-IR in NIH3T3 cells [4]: 16.5%
EC50 (nM), mean (n = 2), IGF-I pTYR of hIGF-IR in NIH3T3 cells [4]: 7.4 nM
% MAX Activation, mean (n = 2), IGF-II pTYR of hIGF-IR in NIH3T3 cells [5]: 28.6%
EC50 (nM), mean (n = 2), IGF-II pTYR of hIGF-IR in NIH3T3 cells [5]: 3.1 nM
Kd [6]: < 0.00286 nM
kon [6]: 3.5e+06 M⁻¹ s⁻¹
koff [7]: < 1e-05 s⁻¹
Kd [8]: 0.216 nM
EC50 (nM), n = 1, IGF-I pTYR, BxPC3 cells [9]: 3.3 nM
EC50 (nM), n = 2, IGF-I pTYR, BxPC3 cells [9]: 1.6 nM
Max % Inhibition (333.3 nM), n = 1, IGF-I pTYR, BxPC3 cells [9]: 100%
Max % Inhibition (333.3 nM), n = 2, IGF-I pTYR, BxPC3 cells [9]: 100%
EC50 (nM), n = 1, IGF-II pTYR, BxPC3 cells [10]: 1.6 nM
EC50 (nM), n = 2, IGF-II pTYR, BxPC3 cells [10]: 1.7 nM
Max % Inhibition (133.3 nM), n = 2, IGF-II pTYR, BxPC3 cells [10]: 91.2%
Max % Inhibition (333.3 nM), n = 1, IGF-II pTYR, BxPC3 cells [10]: 100%
Mouse IGF-I EC50 (nM), n = 1, phosphorylation of hIGF-IR in NIH3T3 cells [11]: 2.8 nM
Mouse IGF-I EC50 (nM), n = 2, phosphorylation of hIGF-IR in NIH3T3 cells [11]: 5.7 nM
Mouse IGF-II EC50 (nM), n = 1, phosphorylation of hIGF-IR in NIH3T3 cells [12]: 3.1 nM
Mouse IGF-II EC50 (nM), n = 2, phosphorylation of hIGF-IR in NIH3T3 cells [12]: 5 nM
% Inhibition, mean (n = 3), IGF-I Proliferation Assay, NIH3T3/hIGF-IR cells [13]: 77%
EC50 (nM), mean (n = 3), IGF-I Proliferation Assay, NIH3T3/hIGF-IR cells [13]: 24.1 nM
% Inhibition, mean (n = 2), IGF-II Proliferation Assay, NIH3T3/hIGF-IR cells [14]: 99.3%
EC50 (nM), mean (n = 2), IGF-II Proliferation Assay, NIH3T3/hIGF-IR cells [14]: 7.6 nM
Kd [15]: 0.216 nM
koff [15]: 0.00093 s⁻¹
kon [15]: 4.3e+06 M⁻¹ s⁻¹
Kd [16]: 0.0019 nM
B1: mAb 7.159.2 (antibody, V domains shown)
VH: QVQLVQSGAEVKKPGASVKVSCKASGYTFTSYDINWVRQATGQGLEWMGWMNPNSGNTGYAQKFQGRVTMTRNTSISTAYMELSSLRSEDTAVYYCARDPYYYYYGMDVWGQGTTVTVSS
VL: QSVLTQPPSVSAAPGQKVTISCSGSSSNIENNHVSWYQQLPGTAPKLLIYDNNKRPSGIPDRFSGSKSGTSATLGITGLQTGDEADYYCETWDTSLSAGRVFGGGTKLTVLG
notes: Fully human XenoMouse hybridoma mAb, lambda light chain (V1-19/JL2); Sister clones 7.159.1 and 7.159.2 are said to be identical; also called 7.159.1; 7_159_1

Kd [1]: 0.436 nM
EC50 (nM), n = 1, IGF-II Proliferation, BxPC3 cells [2]: 0.5 nM
EC50 (nM), n = 2, IGF-II Proliferation, BxPC3 cells [2]: 6.7 nM
Max % Inhibition (133.3 nM), n = 2, IGF-II Proliferation, BxPC3 cells [2]: 109%
Max % Inhibition (333.3 nM), n = 1, IGF-II Proliferation, BxPC3 cells [2]: 117%
Kd [3]: 0.06 nM
% MAX Activation, mean (n = 2), IGF-I pTYR of hIGF-IR in NIH3T3 cells [4]: 14.2%
EC50 (nM), mean (n = 2), IGF-I pTYR of hIGF-IR in NIH3T3 cells [4]: 9.4 nM
% MAX Activation, mean (n = 2), IGF-II pTYR of hIGF-IR in NIH3T3 cells [5]: 21.5%
EC50 (nM), mean (n = 2), IGF-II pTYR of hIGF-IR in NIH3T3 cells [5]: 2.5 nM
Kd [6]: 0.06 nM
koff [6]: 0.00018 s⁻¹
kon [6]: 3e+06 M⁻¹ s⁻¹
EC50 (nM), n = 1, IGF-I pTYR, BxPC3 cells [9]: 5.9 nM
EC50 (nM), n = 2, IGF-I pTYR, BxPC3 cells [9]: 3.8 nM
Max % Inhibition (333.3 nM), n = 1, IGF-I pTYR, BxPC3 cells [9]: 100%
Max % Inhibition (333.3 nM), n = 2, IGF-I pTYR, BxPC3 cells [9]: 98.5%
EC50 (nM), n = 1, IGF-II pTYR, BxPC3 cells [10]: 2 nM
EC50 (nM), n = 2, IGF-II pTYR, BxPC3 cells [10]: 1.9 nM
Max % Inhibition (133.3 nM), n = 2, IGF-II pTYR, BxPC3 cells [10]: 89.7%
Max % Inhibition (333.3 nM), n = 1, IGF-II pTYR, BxPC3 cells [10]: 100%
Kd [17]: 0.162 nM
Mouse IGF-I EC50 (nM), n = 1, phosphorylation of hIGF-IR in NIH3T3 cells [11]: 6 nM
Mouse IGF-I EC50 (nM), n = 2, phosphorylation of hIGF-IR in NIH3T3 cells [11]: 10.2 nM
Mouse IGF-II EC50 (nM), n = 1, phosphorylation of hIGF-IR in NIH3T3 cells [12]: 4 nM
Mouse IGF-II EC50 (nM), n = 2, phosphorylation of hIGF-IR in NIH3T3 cells [12]: 9.7 nM
Kd [18]: 0.421 nM
Kd [19]: 0.615 nM
% Inhibition, mean (n = 3), IGF-I Proliferation Assay, NIH3T3/hIGF-IR cells [13]: 72.6%
EC50 (nM), mean (n = 3), IGF-I Proliferation Assay, NIH3T3/hIGF-IR cells [13]: 23.4 nM
% Inhibition, mean (n = 2), IGF-II Proliferation Assay, NIH3T3/hIGF-IR cells [14]: 73.6%
EC50 (nM), mean (n = 2), IGF-II Proliferation Assay, NIH3T3/hIGF-IR cells [14]: 16.3 nM
Kd [15]: 0.615 nM
koff [15]: 0.0032 s⁻¹
kon [15]: 5.2e+06 M⁻¹ s⁻¹
Kd [16]: 0.164 nM
B2: mAb 7.34.1 (antibody, V domains shown)
VH: QVQLQESGPGLVKPSETLSLTCTVSGGSISSYYWSWIRQPPGRGLEWIGYFFYSGYTNYNPSLKSRVTMSVDTSKNQFSLKLSSVTAADTAVYYCACITGTTKGGMDVWGQGATVTVSS
VL: QSVLTQAPSVSGAPGQRVTISCTGRSSNIGAGYDVHWYQQFPGTAPKLLIYGNSNRPSGVPDRFSGSKSGTSASLAITGLQAEDEADYYCQSYDSSLSGSVFGGGTKLTVLG
notes: Fully human XenoMouse hybridoma mAb, lambda light chain (V1-13/JL2); also called ATCC PTA-7423

Kd [1]: 3.76 nM
EC50 (nM), n = 2, IGF-II Proliferation, BxPC3 cells [2]: 2.6 nM
Max % Inhibition (133.3 nM), n = 2, IGF-II Proliferation, BxPC3 cells [2]: 201%
Max % Inhibition (333.3 nM), n = 1, IGF-II Proliferation, BxPC3 cells [2]: 112%
Kd [3]: 0.0453 nM
% MAX Activation, mean (n = 2), IGF-I pTYR of hIGF-IR in NIH3T3 cells [4]: 21.1%
EC50 (nM), mean (n = 2), IGF-I pTYR of hIGF-IR in NIH3T3 cells [4]: 24.3 nM
% MAX Activation, mean (n = 2), IGF-II pTYR of hIGF-IR in NIH3T3 cells [5]: 21.1%
EC50 (nM), mean (n = 2), IGF-II pTYR of hIGF-IR in NIH3T3 cells [5]: 7.7 nM
Kd [6]: 0.0453 nM
koff [6]: 0.00029 s⁻¹
kon [6]: 6.4e+06 M⁻¹ s⁻¹
EC50 (nM), n = 1, IGF-I pTYR, BxPC3 cells [9]: 5.1 nM
EC50 (nM), n = 2, IGF-I pTYR, BxPC3 cells [9]: 2.9 nM
Max % Inhibition (333.3 nM), n = 1, IGF-I pTYR, BxPC3 cells [9]: 97.3%
Max % Inhibition (333.3 nM), n = 2, IGF-I pTYR, BxPC3 cells [9]: 91.5%
EC50 (nM), n = 1, IGF-II pTYR, BxPC3 cells [10]: 1.9 nM
EC50 (nM), n = 2, IGF-II pTYR, BxPC3 cells [10]: 2.3 nM
Max % Inhibition (133.3 nM), n = 2, IGF-II pTYR, BxPC3 cells [10]: 77.3%
Max % Inhibition (333.3 nM), n = 1, IGF-II pTYR, BxPC3 cells [10]: 98.5%
Mouse IGF-I EC50 (nM), n = 1, phosphorylation of hIGF-IR in NIH3T3 cells [11]: 46 nM
Mouse IGF-II EC50 (nM), n = 1, phosphorylation of hIGF-IR in NIH3T3 cells [12]: 36.1 nM
Kd [19]: 0.328 nM
% Inhibition, mean (n = 3), IGF-I Proliferation Assay, NIH3T3/hIGF-IR cells [13]: 67.3%
EC50 (nM), mean (n = 3), IGF-I Proliferation Assay, NIH3T3/hIGF-IR cells [13]: 40.6 nM
% Inhibition, mean (n = 2), IGF-II Proliferation Assay, NIH3T3/hIGF-IR cells [14]: 62.1%
EC50 (nM), mean (n = 2), IGF-II Proliferation Assay, NIH3T3/hIGF-IR cells [14]: 24.3 nM
Kd [15]: 0.328 nM
koff [15]: 0.0022 s⁻¹
kon [15]: 6.7e+06 M⁻¹ s⁻¹
Kd [16]: 0.295 nM
B3: mAb 7.234.2 (antibody, V domains shown)
VH: QLQLQESGPGLVKPSETLSLTCTVSGGSINSSSNYWGWIRQPPGKGLAWIGGIYYSGSTYYNPSLRSRVTMSVDTSKNQFSLKLSSVTAADTAVYYCARQRGHSSGWWYFDLWGRGTLVTVSS
VL: DIQMTQSPSSVSASVGDRVTITCRASRGISSWLAWYQQRPGKAPKLLIYTASSLQSGVPSRFSGSGSGTDFTLTISSLQPEDFATYYCQQANSFPFTFGPGTKVDIKR
notes: Kappa light chain (L5/JK3); also called 7.234.1; 7_234_1
